In assay [1] the target is T1, calmodulin (Sigma) (UniProt P62157 2-149). Briefly: FP, 50 nM fluorescein-labelled peptide titrated with calmodulin, 25 C.
Assay [2] concerns the target T2, HisKIX (UniProt P45481 586-672).
T2 construct: range 586-672; the residue numbers fit mouse CBP; also called His-tagged CBP KIX domain; CBP KIX; not shown: amino-terminal hexahistidine tag and linker of pET15b
Briefly: FP with HisKIX.

In assay [3] the target is T1, calmodulin (Sigma). Briefly: FP; specificity ratio.
The target of assay [4] is carbonic anhydrase II (Sigma). Briefly: FP, 50 nM fluorescein-labelled peptide titrated with carbonic anhydrase II, 25 C.
Target sequence in this assay (P00921 2-260): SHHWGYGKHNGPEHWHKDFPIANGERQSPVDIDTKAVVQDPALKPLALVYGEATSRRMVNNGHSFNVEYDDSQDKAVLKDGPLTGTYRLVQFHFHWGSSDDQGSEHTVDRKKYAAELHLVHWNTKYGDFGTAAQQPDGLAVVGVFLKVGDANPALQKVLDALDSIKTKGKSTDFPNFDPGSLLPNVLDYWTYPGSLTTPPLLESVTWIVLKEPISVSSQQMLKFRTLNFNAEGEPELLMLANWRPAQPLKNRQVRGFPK
Assay [5] concerns the target T1, calmodulin (Sigma). Description: FP with calmodulin.
Assay [6] concerns the target T3, CBP KIX, wild type (Example 20) (UniProt P45481 586-665, limits assumed).
T3 construct: domain: KIX; also called wild type CBP KIX; CBP MX
Description: FP, 25 nM fluorescein-labelled ligand titrated with CBP KIX, 25 C.

The target in assay [7] is T4, CBP KIX I657A (UniProt P45481 586-665, limits assumed).
T4 construct: domain: KIX; also called 1657A
Briefly: FP, 25 nM fluorescein-labelled ligand titrated with CBP KIX variant, 25 C.

Assay [8] deals with T5, CBP KIX LL652-3AA (UniProt P45481 586-665, limits assumed).
T5 construct: domain: KIX
The assay is described as above.

Assay [9] addresses T6, CBP KIX Y658A (UniProt P45481 586-665, limits assumed).
T6 construct: domain: KIX
The description is as above.

The target in assay [10] is T7, CBP KIX E655A (UniProt P45481 586-665, limits assumed).
T7 construct: domain: KIX
The description is as above.

Assay [11] deals with T8, CBP KIX K662A (UniProt P45481 586-665, limits assumed).
T8 construct: domain: KIX
Described as above.

Assay [12] addresses T9, CBP KIX Y650A (Example 20) (UniProt P45481 586-665, limits assumed).
T9 construct: domain: KIX
Described as above.

Assay [13] concerns the target T10, CBP KIX L599A (UniProt P45481 586-665, limits assumed).
T10 construct: domain: KIX
Described as above.

Assay [14] concerns the target T11, CBP KIX Y658F (UniProt P45481 586-665, limits assumed).
T11 construct: domain: KIX
The assay is described as above.

The target of assay [15] is T12, CBP KIX Q661A (UniProt P45481 586-665, limits assumed).
T12 construct: domain: KIX
Described as above.

Assay [16] concerns the target T13, CBP KIX I660A (UniProt P45481 586-665, limits assumed).
T13 construct: domain: KIX; also called 1660A
The description is as above.

The target in assay [17] is T14, CBP KIX K606A (UniProt P45481 586-665, limits assumed).
T14 construct: domain: KIX
Described as above.

Assay [18] addresses T15, CBP KIX L603A (UniProt P45481 586-665, limits assumed).
T15 construct: domain: KIX
The assay is described as above.

For assay [19], the target named is T2, HisKIX. Description: FP, fluorescein-labelled peptide titrated with HisKIX, 25 C.
Assay [20] addresses T4, CBP KIX I657A. Briefly: FP with CBP KIX variant.
Assay [21] has as its target T5, CBP KIX LL652-3AA. Description: FP with CBP KIX variant.
The target of assay [22] is T6, CBP KIX Y658A. Briefly: FP with CBP KIX variant.
Assay [23] addresses T7, CBP KIX E655A. Description: FP with CBP KIX variant.
The target of assay [24] is T8, CBP KIX K662A. Briefly: FP with CBP KIX variant.
The target in assay [25] is T9, CBP KIX Y650A (Example 20). Briefly: FP with CBP KIX variant.
The target of assay [26] is T10, CBP KIX L599A. Briefly: FP with CBP KIX variant.
The target in assay [27] is T11, CBP KIX Y658F. Briefly: FP with CBP KIX variant.
The target in assay [28] is T12, CBP KIX Q661A. Description: FP with CBP KIX variant.
In assay [29] the target is T13, CBP KIX I660A. Description: FP with CBP KIX variant.
Assay [30] has as its target T14, CBP KIX K606A. Briefly: FP with CBP KIX variant.
Assay [31] deals with T15, CBP KIX L603A. Briefly: FP with CBP KIX variant.
Assay [32] concerns the target carbonic anhydrase II (Sigma). Description: fluorescence emission titration, fluorescein-labelled peptide + carbonic anhydrase II, PBS.
Target sequence in this assay (chain, as listed by the source): as the sequence (P00921 2-260) above
Assay [33] has as its target T1, calmodulin (Sigma). Briefly: fluorescence emission titration, fluorescein-labelled peptide + calmodulin (HEPES, KCl, CaCl2 buffer).
For assay [34], the target named is T16, Human recombinant Bcl-2 (1-205), soluble GST-fusion (Santa Cruz Biotechnology) (human, UniProt P10415 1-205).
T16 construct: Bought; also called GST-Bcl-2; not shown: glutathione S-transferase (GST) fusion partner
Description: fluorescence emission titration, fluorescein-labelled peptide + serially diluted Bcl-2, 4 C, PBS.

Assay [35] deals with T2, HisKIX. Description: FP, fluorescein-labelled peptide titrated with HisKIX, 25 C. This is another data set of the same source.
Assay [36] deals with T2, HisKIX. Briefly: FP with HisKIX; end of the range assigned by Table 1.
Assay [37] concerns the target carbonic anhydrase II (Sigma). Briefly: FP, 50 nM fluorescein-labelled peptide titrated with carbonic anhydrase II, 25 C. This is another data set of the same source.
Target sequence in this assay (chain, as listed by the source): as the sequence (P00921 2-260) above

Like-named read-outs stand apart in the source and are kept apart here. Square brackets hold non-standard residues; d marks the D form. Ends that are not written are not given here. pS = N[C@@H](COP(=O)(O)O)C(=O)O

T9 sequence (P45481 586-665 Y650A limits assumed): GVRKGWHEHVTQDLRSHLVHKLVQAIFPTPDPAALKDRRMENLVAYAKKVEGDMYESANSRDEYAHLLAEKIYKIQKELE
T4 sequence (P45481 586-665 I657A limits assumed): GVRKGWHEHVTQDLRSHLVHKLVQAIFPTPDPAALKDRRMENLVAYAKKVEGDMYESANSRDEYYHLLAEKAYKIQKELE
T2 sequence (P45481 586-672): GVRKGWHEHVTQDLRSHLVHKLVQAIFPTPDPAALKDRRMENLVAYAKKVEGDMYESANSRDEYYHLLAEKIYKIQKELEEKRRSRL
T5 sequence (P45481 other isoform, or with tags, fused parts or gaps limits assumed): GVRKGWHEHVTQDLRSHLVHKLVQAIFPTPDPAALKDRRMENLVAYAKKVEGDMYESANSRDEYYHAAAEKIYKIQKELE
T10 sequence (P45481 586-665 L599A limits assumed): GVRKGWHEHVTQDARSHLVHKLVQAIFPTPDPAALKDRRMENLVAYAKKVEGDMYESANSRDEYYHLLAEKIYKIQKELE
T12 sequence (P45481 586-665 Q661A limits assumed): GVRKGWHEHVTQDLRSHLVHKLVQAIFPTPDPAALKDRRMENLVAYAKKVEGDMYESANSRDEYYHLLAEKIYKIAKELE
T11 sequence (P45481 586-665 Y658F limits assumed): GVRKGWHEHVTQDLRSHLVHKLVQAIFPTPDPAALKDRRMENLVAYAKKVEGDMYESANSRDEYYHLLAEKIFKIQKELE
T6 sequence (P45481 586-665 Y658A limits assumed): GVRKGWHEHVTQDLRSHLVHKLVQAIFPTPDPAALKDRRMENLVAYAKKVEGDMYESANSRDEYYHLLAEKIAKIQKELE
T8 sequence (P45481 586-665 K662A limits assumed): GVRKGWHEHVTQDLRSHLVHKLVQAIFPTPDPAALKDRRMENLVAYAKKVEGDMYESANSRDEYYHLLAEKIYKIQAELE
T14 sequence (P45481 586-665 K606A limits assumed): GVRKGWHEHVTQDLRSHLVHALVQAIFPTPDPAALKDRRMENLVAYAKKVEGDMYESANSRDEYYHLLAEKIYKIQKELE
T13 sequence (P45481 586-665 I660A limits assumed): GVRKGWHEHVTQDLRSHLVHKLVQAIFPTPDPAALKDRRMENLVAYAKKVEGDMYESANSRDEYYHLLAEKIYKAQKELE
T7 sequence (P45481 586-665 E655A limits assumed): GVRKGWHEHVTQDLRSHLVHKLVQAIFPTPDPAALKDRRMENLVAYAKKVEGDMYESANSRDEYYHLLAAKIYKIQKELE
T15 sequence (P45481 586-665 L603A limits assumed): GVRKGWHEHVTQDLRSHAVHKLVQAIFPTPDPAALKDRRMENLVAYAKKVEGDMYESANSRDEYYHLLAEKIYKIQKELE
T3 sequence (P45481 586-665 limits assumed): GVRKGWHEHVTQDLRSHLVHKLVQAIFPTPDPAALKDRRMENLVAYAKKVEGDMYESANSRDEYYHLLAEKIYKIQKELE
T16 sequence (P10415 1-205): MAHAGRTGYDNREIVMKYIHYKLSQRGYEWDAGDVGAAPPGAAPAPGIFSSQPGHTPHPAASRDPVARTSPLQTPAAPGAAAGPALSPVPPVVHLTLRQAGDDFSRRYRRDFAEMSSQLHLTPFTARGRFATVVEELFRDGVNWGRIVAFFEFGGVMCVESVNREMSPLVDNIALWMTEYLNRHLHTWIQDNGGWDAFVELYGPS

B1: peptide C^P (peptide)
peptide: RRL[pS]FFYILLDLYLDAPGVC(acetamidofluorescein)-NH2
notes: Chimeric alpha-helical portion of the PPKID peptides (residues 15-33); also called Peptide C (phosphorylated)
In the case of B1, the Kd in the assay with calmodulin (Sigma) [1] stood at 178 µM. In addition, in the assay with HisKIX [2], the “fold increase in affinity over KID-B^P” value was more than 20 fold, the “fold lower affinity than PPKID4^P” value was found to be 5 fold and the “ΔΔG relative to KID-B^P” value is -1.8 kcal/mol. Further, the “Krel = Kd (CalM)/Kd (HisKIX)” value with calmodulin (Sigma) [3] was found to be 74. In assay [4], this molecule had a Kd of 97 µM. In the assay with calmodulin (Sigma) [5], the “fold lower affinity than PPKID4^P” value came out at 4 fold.

B2: KID-AB^P (peptide)
peptide: TDSQKRREILSRRP[pS]YRKILNDLSSDAPGVC-NH2
modifications: also: C-terminal Cys acetamidofluorescein-labelled in direct assays, unlabelled as competitor
notes: CREB KID residues 119-148 (A and B helices) plus a C-terminal Cys; also called KID-AB (phosphorylated); CREB KID^P
With B2, the Kd in assay [6] worked out at 0.41 µM; with CBP KIX I657A [7], 1.9 µM; with CBP KIX LL652-3AA [8], 2.9 µM; in the assay with CBP KIX Y658A [9] it was 142 µM; in the assay with CBP KIX E655A [10] it was 0.71 µM; with CBP KIX K662A [11], 4.8 µM. The dissociation constant (Kd) is 9.4 µM in assay [12]; 1.1 µM with CBP KIX L599A [13]; 26 µM in the assay with CBP KIX Y658F [14]; 0.93 µM with CBP KIX Q661A [15]; 0.27 µM in the assay with CBP KIX I660A [16]; 2.3 µM in the assay with CBP KIX K606A [17]. Besides, the results for the dissociation constant (Kd) in the assay with CBP KIX L603A [18] and in the assay with HisKIX [19] were 3.4 µM and 0.562 µM, respectively. Also, the ΔΔG upon phosphorylation with HisKIX [2] is more than 3.2 kcal/mol. For the same molecule, the “ΔΔG relative to wild type CBP KIX” value with CBP KIX I657A [20] was 0.9 kcal/mol; in the assay with CBP KIX LL652-3AA [21], 1.2 kcal/mol; with CBP KIX Y658A [22], 3.5 kcal/mol; in the assay with CBP KIX E655A [23] it was 0.32 kcal/mol; in the assay with CBP KIX K662A [24], 1.5 kcal/mol; in assay [25], 1.8 kcal/mol. In addition, the “ΔΔG relative to wild type CBP KIX” value was 0.58 kcal/mol with CBP KIX L599A [26]; 2.5 kcal/mol with CBP KIX Y658F [27]; 0.48 kcal/mol in the assay with CBP KIX Q661A [28]; -0.26 kcal/mol with CBP KIX I660A [29]; 1 kcal/mol with CBP KIX K606A [30]; 1.2 kcal/mol with CBP KIX L603A [31].

B3: Bak peptide (peptide)
peptide: GQVGRQLAIIGDDINRYC-NH2
modifications: not fully specified (residue 18)
notes: Labelled form used for Kd determinations carries an additional carboxy-terminal YC; The printed mass (1724) looks too small for residues 72-94; also called Bak BH3 peptide; Bak (72-94)
As to B3, the equilibrium dissociation constant (Kd) in assay [32] stood at 22 µM; with calmodulin (Sigma) [33] it was 25 µM; in [34], 0.363 µM.

Take GISWPTFEGDDAPVRRLSFFYILLDLYLDAPGVC(acetamidofluorescein)-NH2 (designed binder, also called PPKID6 (unphosphorylated)) [PPKID6^U]: the equilibrium dissociation constant (Kd) in assay [6] is 0.54 µM; with HisKIX [35], 1.5 µM; with CBP KIX I657A [7], 3.6 µM; with CBP KIX LL652-3AA [8], 0.14 µM; in the assay with CBP KIX Y658A [9] it was 1.7 µM; with CBP KIX E655A [10] it was 1.7 µM. Moreover, the dissociation constant (Kd) with CBP KIX K662A [11] is 1.8 µM; in [12], 1.3 µM; with CBP KIX L599A [13] it was 3.3 µM; in the assay with CBP KIX Y658F [14] it was 2.8 µM; in the assay with CBP KIX Q661A [15], 0.41 µM; with CBP KIX I660A [16], 6.1 µM. Also, the Kd in the assay with CBP KIX K606A [17] was 1.2 µM; with CBP KIX L603A [18], 2.5 µM; with calmodulin (Sigma) [1], more than 168 µM; in assay [37] it was 79 µM; with HisKIX [19] it was 1.5 µM. The “fold enhancement in affinity over KID-AB^U” value with HisKIX [36] is not below 77 fold. Besides, the “fold enhancement in affinity over KID-B^U” value with HisKIX [36] was not below 198 fold. The “fold enhancement in affinity over peptide C^U” value with HisKIX [36] was 7 to 14 fold. Moreover, the “Krel = Kd (CalM)/Kd (HisKIX)” value in the assay with calmodulin (Sigma) [3] was more than 112. For the same molecule, the “ΔΔG relative to wild type CBP KIX” value is 1.1 kcal/mol in the assay with CBP KIX I657A [20]; -0.8 kcal/mol with CBP KIX LL652-3AA [21]; 0.68 kcal/mol with CBP KIX Y658A [22]; 0.68 kcal/mol in the assay with CBP KIX E655A [23]; 0.71 kcal/mol with CBP KIX K662A [24]; 0.52 kcal/mol in assay [25]. The “ΔΔG relative to wild type CBP KIX” value is 1.1 kcal/mol with CBP KIX L599A [26]; 0.97 kcal/mol with CBP KIX Y658F [27]; -0.16 kcal/mol with CBP KIX Q661A [28]; 1.4 kcal/mol in the assay with CBP KIX I660A [29]; 0.47 kcal/mol in the assay with CBP KIX K606A [30]; 0.91 kcal/mol in the assay with CBP KIX L603A [31].
